The record followed here is paper PMC10689251.

In this assay the target is RuBisCO large subunit CbbL (Cyanobium sp. PCC 7001). Briefly: cryo-EM structure; single-particle analysis of RuBisCO particles spilled from broken native α-carboxysomes of Cyanobium sp. PCC 7001 (sample ~1 mg/mL in TEMB buffer, graphene oxide coated grids); refined with D4 symmetry (2.87 Å) and without symmetry (3.79 Å); density for RuBP and magnesium in the active site.

As for “RuBisCO large subunit CbbL (natural protein)”, the stoichiometry N (in general, a count of units in the complex or per binding partner) was 8.
